The source of these data is patent US20250346644A1 (LATTICON SUZHOU BIOPHARMACEUTICALS, published 2025).

Read-outs that look alike come from different tables or passages of the source.

For assay [1], the target named is T1, mIL2-his (mouse, UniProt P04351 21-169).
T1 construct: also called wild-type mouse IL-2 (with a his-tag); not shown: his-tag
T1 sequence (looked up): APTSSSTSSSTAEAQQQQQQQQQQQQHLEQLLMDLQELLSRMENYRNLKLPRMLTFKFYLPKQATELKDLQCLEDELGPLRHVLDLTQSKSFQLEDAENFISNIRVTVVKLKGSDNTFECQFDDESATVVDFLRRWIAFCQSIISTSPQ
Description: BLI ForteBio, Ab on Protein A sensor.

The target of assay [2] is T1, mIL2-his. The assay can be described thus: ELISA, antibody captured by anti-human IgG, mIL2-his titrated.
Description: (§1) ELISA was performed as follows: a goat anti-human IgG (Jackson Immunoresearch) was diluted to 1 μg/mL in 1×PBS and added to an ELISA plate at 100 μL/well, and then incubated at 4° C. overnight. The plate was washed with PBS and then blocked at room temperature for 1 hour after adding the blocking solution (PBST containing 1% BSA) to each well. […] The plate was washed with PBST; the HRP-labeled anti-6×His-tag secondary antibody (Proteintech) diluted at a ratio of 1:10,000 in blocking solution was then added to each well and incubated at room temperature for 1 hour. The plate was washed with PBST; the TMB chromogenic solution (Thermo) was added to each well and incubated in dark for 3-10 minutes at room temperature. The stop solution (2 M HCl) was added to each well, and OD values at a wavelength of 450-570 nm were read using a multimode microplate reader (Varioskan, Thermo).
Assay [3] deals with T2, hIL2Rβ (hCD122) (human, UniProt P14784 27-239, limits assumed).
T2 construct: bought recombinant protein; also called hCD122 (Acro)
T2 sequence (looked up): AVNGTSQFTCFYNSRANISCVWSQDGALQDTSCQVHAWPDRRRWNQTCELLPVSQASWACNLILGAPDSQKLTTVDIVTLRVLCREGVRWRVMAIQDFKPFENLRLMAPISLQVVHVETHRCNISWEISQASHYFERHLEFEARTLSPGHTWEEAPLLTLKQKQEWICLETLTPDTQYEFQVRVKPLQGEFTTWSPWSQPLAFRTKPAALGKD
Description: ELISA (method of section 2.1.1): sample captured on coated goat anti-human IgG, hCD122 titrated; the x axis is the CD122 concentration. (In an ELISA, binding on a coated surface is turned into a signal by an enzyme label.)
Description: as §1

In assay [4] the target is T3, high-affinity IL2R expressed on the surface of CTLL-2 cells.
T3 sequence (P01590 whole entry, species assumed, looked up): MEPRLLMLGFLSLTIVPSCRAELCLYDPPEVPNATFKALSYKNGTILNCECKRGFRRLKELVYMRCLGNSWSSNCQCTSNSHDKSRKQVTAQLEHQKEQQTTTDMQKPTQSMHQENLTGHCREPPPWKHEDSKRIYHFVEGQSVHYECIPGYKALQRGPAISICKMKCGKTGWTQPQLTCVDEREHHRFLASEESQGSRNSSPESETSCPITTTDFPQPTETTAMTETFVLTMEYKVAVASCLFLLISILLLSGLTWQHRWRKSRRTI
T3 sequence (P16297 whole entry, species assumed, looked up): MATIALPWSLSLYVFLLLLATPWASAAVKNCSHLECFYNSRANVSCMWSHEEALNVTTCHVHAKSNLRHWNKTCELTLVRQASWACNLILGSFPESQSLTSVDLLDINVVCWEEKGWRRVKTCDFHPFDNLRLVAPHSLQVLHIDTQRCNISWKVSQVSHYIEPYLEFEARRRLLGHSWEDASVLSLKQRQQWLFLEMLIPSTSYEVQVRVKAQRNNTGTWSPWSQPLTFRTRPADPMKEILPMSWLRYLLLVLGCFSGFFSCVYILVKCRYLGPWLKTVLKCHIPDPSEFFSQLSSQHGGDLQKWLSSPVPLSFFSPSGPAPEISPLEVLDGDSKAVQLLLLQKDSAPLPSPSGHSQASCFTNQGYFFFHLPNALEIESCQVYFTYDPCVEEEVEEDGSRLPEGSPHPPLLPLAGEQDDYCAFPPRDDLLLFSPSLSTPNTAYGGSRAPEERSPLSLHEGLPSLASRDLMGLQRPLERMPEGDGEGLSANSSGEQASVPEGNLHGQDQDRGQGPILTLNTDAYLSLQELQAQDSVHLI
T3 sequence (P34902 whole entry, species assumed, looked up): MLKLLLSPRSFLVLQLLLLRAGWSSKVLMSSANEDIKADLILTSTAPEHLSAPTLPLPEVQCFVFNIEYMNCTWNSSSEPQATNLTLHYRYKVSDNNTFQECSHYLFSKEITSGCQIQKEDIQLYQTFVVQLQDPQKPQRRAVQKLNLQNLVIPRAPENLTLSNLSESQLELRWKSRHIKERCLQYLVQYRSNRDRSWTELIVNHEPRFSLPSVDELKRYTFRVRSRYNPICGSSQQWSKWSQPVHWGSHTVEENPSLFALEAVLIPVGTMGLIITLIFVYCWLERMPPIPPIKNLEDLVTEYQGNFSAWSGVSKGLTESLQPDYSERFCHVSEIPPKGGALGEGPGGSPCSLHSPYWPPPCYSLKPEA
Description: cell-based or functional assay.

Assay [5] deals with T3, high-affinity IL2R expressed on the …. The assay can be described thus: cell-based or functional assay. The source holds these as a separate data set.
Assay [6] has as its target T2, hIL2Rβ (hCD122). The assay can be described thus: ELISA (method of section 4.2.1): sample captured on coated goat anti-human IgG, hCD122 titrated; the x axis is the CD122 concentration.
The target of another assay is T4, hIL2Rα (hCD25) (human, UniProt P01589 22-213, limits assumed).
T4 construct: bought recombinant protein; also called hCD25 (Acro); biotin-CD25 (Acro)
T4 sequence (looked up): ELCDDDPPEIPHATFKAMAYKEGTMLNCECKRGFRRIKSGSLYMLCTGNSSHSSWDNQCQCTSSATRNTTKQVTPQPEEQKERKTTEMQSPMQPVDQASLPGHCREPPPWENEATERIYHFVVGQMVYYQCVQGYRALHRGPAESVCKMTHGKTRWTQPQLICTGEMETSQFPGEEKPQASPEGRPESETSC
The assay can be described thus: ELISA (method of section 4.2.1): sample captured on coated goat anti-human IgG, hCD25 titrated; the x axis is the CD25 concentration.

Assay [7] deals with T5, hIL2-TM-his (human, UniProt P60568 21-153).
T5 construct: also called hIL-2 mutein containing three point mutations K64G, N90R and M104E (with a his-tag); not shown: his-tag
T5 chain: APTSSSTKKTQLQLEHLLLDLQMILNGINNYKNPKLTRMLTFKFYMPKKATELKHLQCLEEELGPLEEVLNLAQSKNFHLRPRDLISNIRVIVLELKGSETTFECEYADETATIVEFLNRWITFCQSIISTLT
The assay can be described thus: BLI ForteBio, Ab on Protein A sensor.

For assay [8], the target named is T1, mIL2-his. The assay can be described thus: BLI ForteBio, Ab on Protein A sensor. This is another data set of the same source.
Description: (§2) After each cycle of association and dissociation steps, the sensor was regenerated by 10 mM glycine buffer (pH 1.5) and then stated with the next cycle of detection. After the detection, the association rate constant and dissociation rate constant between the antibody and antigen were fitted and extrapolated using the analytical software, and the value of affinity constant (KD) was calculated.
Assay [9] has as its target T5, hIL2-TM-his. The assay can be described thus: BLI ForteBio, Ab on Protein A sensor. (In general: Biolayer interferometry detects binding as a change in optical thickness at a sensor tip.)
Description: as §2
For assay [10], the target named is T1, mIL2-his. The assay can be described thus: BLI ForteBio, Ab on Protein A sensor. This is another data set of the same source.
Description: as §2
For the next assay, the target named is T6, hIL2-DM-his (human, UniProt P60568 21-153).
T6 construct: expressed in ExpiCHO-S cells, nickel-column purified; also called hIL-2 mutein containing two point mutations K64G and N90R (with a his-tag); not shown: his-tag
Description: BLI ForteBio, Ab on Protein A sensor.

Description for hIL2-DM-his: as §2

B1: hS4B6-H6K7 (antibody, V domains shown)
VH: QVQLVQSGAEVKKPGATVKISCKVSGDTITAYYLHWVRQAPGQGLEWIGRIDPEDDSTKYAENFKNRVTITADTSTNTAYMELSSLRSEDTAVYYCTTVTFYYSRELRWFAYWGQGTLVTVSS
VL: DIQMTQSPSSLSASVGDRVTITCQASQDIGNYLSWYQQKPGKAPKLLIHSATSLADGVPSRFSGSGSGTDFTLTISSLQPEDFATYYCLQHYSTPYTFGGGTKVEIK
notes: full antibody
The Kd is the constant that tells how readily two partners part at equilibrium. A higher Kd goes with weaker binding. For orientation: koff means the first-order rate constant of dissociation. Read a high koff as a short-lived complex. As a reminder, the kon is the second-order rate constant of association. The EC50 is the concentration needed to bring the measured effect to its halfway point. A lower EC50 goes with a more potent agent. With B1, in the assay with mIL2-his [1], binding was put at a Kd of 1.4 nM, the off-rate constant (koff) worked out at 0.00121 s⁻¹ and the kon was found to be 864000 M⁻¹ s⁻¹. Further, the EC50 in the assay with mIL2-his [2] came to 0.0357 µg/mL.

B2: IC-Cy08 (other)
heavy: APTSSSTKKTQLQLEHLLLDLQMILNGINNYKNPKLTRMLTFKFYMPKKATELKHLQCLEEELGCLEEVLNLAQSKNFHLRPRDLISNIRVIVLELKGSETTFMCEYADETATIVEFLNRWITFCQSIISTLTGGGGSGGGGSGGGGSGGGGSQVQLVQSGAEVKKPGATVKISCKVSGDTITAYYMHWVRQAPGQGLEWIGRIDPEDDSTKYAENFKGRVTITADTSTDTAYMELSSLRSEDTAVYYCTTVTCYYSRELRWFAYWGQGTLVTVSS
VL: DIVLTQSPATLSLSPGERATLSCQASQDIGNYLSWYQQKPGQAPRLLIYSATSLASGIPARFSGSRSGTDFTLTISSLEPEDFAVYYCLQHYSTPYTFGQGTKLEIK
notes: hIL-2/anti-IL-2 antibody fusion protein, disulfide IL:65-H:97; also called H6K3(H)-Cy08; H6K3(H)-Cy-08
Regarding B2, the binding result with hIL2Rβ (hCD122) [3] was “binds”. In assay [4], the “Activity in Promoting CTLL-2 Cell Proliferation (EC50, nM)” value stood at 0.425 nM. For the same molecule, the “STAT5 phosphorylation in CTLL-2 cells by flow cytometry, EC50” value in assay [5] turned out to be 0.234 nM.

B3: hS4B6-H3K3 (antibody, V domains shown)
VH: QVTLKESGPVLVKPTQTLTLTCTVSGDTITAYYLHWIRQPPGKALEWIGRIDPEDDSTKYAENFKNRLTFSADTSKNQVVLTMTNMDPVDTATYYCARVTFYYSRELRWFAYWGQGTLVTVSS
VL: DIVLTQSPATLSLSPGERATLSCQASQDIGNYLSWYQQKPGQAPRLLIYSATSLADGIPARFSGSRSGTDYTLTISSLEPEDFAVYYCLQHYSTPYTFGQGTKLEIK
notes: full antibody
In the assay with mIL2-his [1], B3 showed a Kd of 13.2 nM, a koff of 0.00265 s⁻¹ and an on-rate (kon) of 200000 M⁻¹ s⁻¹. In addition, in the assay with mIL2-his [2], the EC50 was 0.185 µg/mL.

B4: K2G11-Cy06 (other)
heavy: SSSTKKTQLQLEHLLLDLQMILNGINNYKNPKLTRMLTFKFYMPKKATELKHLQCLEEELGPLEEVLNLAQSKNFHLRPRDLISNIRVIVLELKGSETCFMCEYADETATIVEFLNRWITFLQSIISTLTGGGGSGGGGSGGGGSGGGGSQVQLVQSGAEVKKPGATVKISCKVSGDTITAYYMHWVRQAPGQGLEWIGRIDPDDDSTKYAENFKGRVTITADTSTDTAYMELSSLRSEDTAVYYCTTITFLYSRELRWFAYWGQGTLVTVSS
VL: DIVLTQSPATLSLSPGERATLSCQASQYISNYLSWYQQKPGQAPRLLIYSATSLASGIPARFSGSRSCTDFTLTISSLEPEDFAVYYCLQHYSTPYTFGQGTKLEIK
notes: hIL2-DM (Δ3, C125L) fused to the heavy chain of K2G11, disulfide IL:102-L:68
B4: the binding result with hIL2Rβ (hCD122) [6] is on record as “binds”; in the assay with hIL2Rα (hCD25) it was “no binding (tested: 10 µg/mL)”. Also, in assay [4], the “Activity in Promoting CTLL-2 Cell Proliferation (EC50, nM)” value came to 5.77 nM.

B5: H6K3(H)-Cy10 (other)
heavy: SSSTKKTQLQLEHLLLDLQMILNGINNYKNPKLTRMLTCKFYMPKKATELKHLQCLEEELGPLEEVLNLAQSKNFHLRPRDLISNIRVIVLELKGSETTFMCEYADETATIVEFLNRWITFLQSIISTLTGGGGSGGGGSGGGGSGGGGSQVQLVQSGAEVKKPGATVKISCKVSGDTITAYYMHWVRQAPGQGLEWIGRIDPEDDSTKYAENFKGRVTITADTSTDTAYMELSSLRSEDTAVYYCTTVTCYYSRELRWFAYWGQGTLVTVSS
VL: DIVLTQSPATLSLSPGERATLSCQASQDIGNYLSWYQQKPGQAPRLLIYSATSLASGIPARFSGSRSGTDFTLTISSLEPEDFAVYYCLQHYSTPYTFGQGTKLEIK
notes: fusion with the parental antibody hS4B6-H6K3(H), disulfide IL:42-H:97; also called H6K3-Cy10
For B5, the binding result in the assay with hIL2Rα (hCD25) was “no binding (tested: 10 µg/mL)”.

B6: hS4B6-H6K3(H) (antibody, V domains shown)
VH: QVQLVQSGAEVKKPGATVKISCKVSGDTITAYYMHWVRQAPGQGLEWIGRIDPEDDSTKYAENFKGRVTITADTSTDTAYMELSSLRSEDTAVYYCTTVTFYYSRELRWFAYWGQGTLVTVSS
VL: DIVLTQSPATLSLSPGERATLSCQASQDIGNYLSWYQQKPGQAPRLLIYSATSLASGIPARFSGSRSGTDFTLTISSLEPEDFAVYYCLQHYSTPYTFGQGTKLEIK
notes: H6K3 with L34M, N65G, N76D (heavy) and D56S, Y71F (light)
In the assay with hIL2-TM-his [7], B6 registered a Kd of 9.88 nM, a koff of 0.0027 s⁻¹ and an on-rate (kon) of 274000 M⁻¹ s⁻¹. In the assay with mIL2-his [8], this molecule yielded a Kd of 0.254 nM, an off-rate (koff) of 0.000236 s⁻¹ and a kon of 928000 M⁻¹ s⁻¹.

B7: S4B6 chimeric antibody (antibody, human IgG1, V domains shown)
VH: EVQLQESGAELVRPGTSVKLSCKVSGDTITAYYLHFVRQRPGQGLEWIGRIDPEDDSTKYAENFKNKATFTADASSNTAYLRLSSLTSEDTATYFCTTVTFYYSRELRWFAYWGQGTLVTVSS
VL: DIQVTQSPASLSASLEEIVTITCQASQDIGNYLSWYQQKLGKSPQLLIHSATSLADGVPSRFSGSRSGTQYSLKINRLQVEDTGIYYCLQHYSTPYTFGAGTKLELK
notes: also called chS4B6
In the case of B7, the equilibrium dissociation constant (Kd) was 0.996 nM with mIL2-his [1], 22.6 nM in the assay with hIL2-TM-his [9], 0.996 nM with mIL2-his [10] and 39.4 nM with hIL2-DM-his. In addition, the koff with mIL2-his [1] worked out at 0.000182 s⁻¹; with hIL2-TM-his [9], 0.00476 s⁻¹; in the assay with mIL2-his [10], 0.000182 s⁻¹; with hIL2-DM-his it was 0.0106 s⁻¹. In addition, the kon was found to be 183000 M⁻¹ s⁻¹ with mIL2-his [1], 210000 M⁻¹ s⁻¹ with hIL2-TM-his [9], 183000 M⁻¹ s⁻¹ in the assay with mIL2-his [10] and 269000 M⁻¹ s⁻¹ with hIL2-DM-his. The EC50 with mIL2-his [2] amounted to 0.0139 µg/mL.
